Results on one molecule are retold here after patent US20140186370A1 (Kyowa Kirin, published 2014).

This test has as its target T1, H3 protein ectodomain from vaccinia virus strain Lister with C-terminal 6-HIS tag, expressed from pET21a(+) (vaccinia virus strain Lister, UniProt P20497 1-269).
T1 chain: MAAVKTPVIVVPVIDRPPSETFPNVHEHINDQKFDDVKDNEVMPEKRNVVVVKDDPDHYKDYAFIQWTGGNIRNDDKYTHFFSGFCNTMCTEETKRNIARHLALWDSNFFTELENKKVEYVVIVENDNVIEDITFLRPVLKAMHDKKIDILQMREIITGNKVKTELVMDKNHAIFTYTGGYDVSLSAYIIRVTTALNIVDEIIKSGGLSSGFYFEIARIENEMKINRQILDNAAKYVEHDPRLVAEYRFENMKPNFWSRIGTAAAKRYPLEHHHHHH
As to the kind of experiment: Western blot on E. coli lysates (FIG. 12A). For orientation: Immunoblotting shows a protein as a band on a membrane.

B1: 130D67 human anti-H3L monoclonal antibody (antibody, V domains shown)
VH: EVQLVESGGGLVQPGRSLRLSCAASGFTFDDYAIHWVRQAPGKGLEWVSGISWNGRSIGYADSVKGRFTISRDNAKNSLYLQMNSLRAEDTALYYCAKDIGFYGSGSLDYWGQGTLVTVSS
VL: not shown
For the molecule B1, the binding result is listed as “binds”.
